Target: T1, ClbR (Escherichia coli Nissle 1917) (UniProt Q0P7J1)
T1 sequence: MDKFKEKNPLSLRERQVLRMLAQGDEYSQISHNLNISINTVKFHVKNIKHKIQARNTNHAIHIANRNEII
Assay: EMSA
Details: pH and temperature not stated

Sequence	binding
CCAGTCACGACGTTGTAATACGACGGCCAGAGAATCCGTAATCATAGTCATAGCTGTATCCTGTGTGAAATTGTTATCCGCTCATAATTTCACACAACATACGAGCCGGACACATAGAGTGTAAAGACTGGGGTGCCTAATGAGTGAGCTGACTCACATTAATTGTGTTGCGCTCACTGCCCGCTTTCCAGTCGGGAAACTTGTCGTGCCAGCTGCATTAATGAATCGG (double strand) [lacZ promoter probe (229 bp)]	no binding
TGCTCATGGTAGTTACTCCTTTTCTTATCCTTTAAGGAATGGAATAAAAACCCCTGTTGACTTGGTGTTAGCGGTAACTGCTTACGCGTGTCCATCTTATTACATGGAAAATCTCCAGAGGTATTATCCATAACCATCACCTTATTATCGGATTTATAGATTATTTAACATGATTATTCTAAATGG (double strand) [probe 12 (clbB upstream, 186 bp)]	no binding
TGCTCATGGTAGTTACTCCTTTTCTTATCCTTTAAGGAATGGAATAAAAACCCCTGTTGACTTGGTGTTAGCGGTAACTGCTTACGCGTGTCCATCTTATTACATGGAAAATCTCCAGAGGTATTATCCATAACCATCACCTTATTATCGGATTTATAGATTATTTAACAT (double strand) [probe 7 (clbB upstream, 171 bp)]	no binding
TGCGGATAGGTGTGCCATTTAGAATAATCATGTTAAATAATCTATAAATCCGATAATAAGGTGATGGTTATGGATAATACCTCTGGAGATTTTCCATGTAATAAGATGGACACGCGTAAGCAGTTACCGCTAACACCAAGTCAACAGGGGTTTTTATTCCATTCCTTAAAGGATAAGAAAAGGAGTAACTACCATGAGCA (double strand) [probe 11 (clbB upstream, 200 bp)]	no binding
GAGATTTTCCATGTAATAAGATGGACACGCGTAAGCAGTTACCGCTAACACCAAGTCAACAGGGGTTTTTATTCCATTCCTTAAAGGATAAGAAAAGGAGTAACTACCATGAGCA (double strand) [probe 8 (clbB upstream, 115 bp)]	no binding
